In patent EP2170953B1:

Columns and labels:
[1] = molecular target: Aβ1-42 peptide, oligomer-enriched preparation; assay: ELISA assay 1, Ab 1:128 of 0.5 µg/ml
[2] = molecular target: Aβ1-42 peptide, monomer-enriched preparation; assay: ELISA assay 2, Ab 1:128 of 0.5 µg/ml
[3] = molecular target: Aβ1-42 peptide, oligomer-enriched preparation; assay: ELISA assay 2, Ab 1:128 of 0.5 µg/ml
[4] = molecular target: Aβ1-42 peptide, monomer-enriched preparation; assay: ELISA assay 3, Ab 1:128 of 0.5 µg/ml
[5] = molecular target: Aβ1-42 peptide, oligomer-enriched preparation; assay: ELISA assay 3, Ab 1:128 of 0.5 µg/ml
[6] = molecular target: Aβ1-42 peptide, monomer-enriched preparation; assay: ELISA mean of 3, Ab 1:1 of 0.5 µg/ml
[7] = molecular target: Aβ1-42 peptide, oligomer-enriched preparation; assay: ELISA mean of 3, Ab 1:1 of 0.5 µg/ml
[8] = molecular target: Aβ1-42 peptide, monomer-enriched preparation; assay: ELISA mean of 3, Ab 1:2 of 0.5 µg/ml
[9] = molecular target: Aβ1-42 peptide, oligomer-enriched preparation; assay: ELISA mean of 3, Ab 1:2 of 0.5 µg/ml
[10] = molecular target: Aβ1-42 peptide, monomer-enriched preparation; assay: ELISA mean of 3, Ab 1:4 of 0.5 µg/ml
[11] = molecular target: Aβ1-42 peptide, oligomer-enriched preparation; assay: ELISA mean of 3, Ab 1:4 of 0.5 µg/ml
[12] = molecular target: Aβ1-42 peptide, oligomer-enriched preparation; assay: ELISA mean of 3, Ab 1:8 of 0.5 µg/ml
[13] = molecular target: Aβ1-42 peptide, monomer-enriched preparation; assay: ELISA mean of 3, Ab 1:16 of 0.5 µg/ml
[14] = molecular target: Aβ1-42 peptide, oligomer-enriched preparation; assay: ELISA mean of 3, Ab 1:16 of 0.5 µg/ml
[15] = molecular target: Aβ1-42 peptide, monomer-enriched preparation; assay: ELISA mean of 3, Ab 1:32 of 0.5 µg/ml
[16] = molecular target: Aβ1-42 peptide, oligomer-enriched preparation; assay: ELISA mean of 3, Ab 1:32 of 0.5 µg/ml
[17] = molecular target: Aβ1-42 peptide, monomer-enriched preparation; assay: ELISA mean of 3, Ab 1:64 of 0.5 µg/ml
[18] = molecular target: Aβ1-42 peptide, oligomer-enriched preparation; assay: ELISA mean of 3, Ab 1:64 of 0.5 µg/ml
[19] = molecular target: Aβ1-42 peptide, high molecular weight (HMW) proto-fibrillar (PF) oligomer enriched preparation (human); assay: ELISA on coated fraction, Ab 0.5 µg/ml
Aβ1-42 peptide, high molecular weight (HMW) proto-fibrillar (PF) oligomer enriched preparation (human), sequence (peptide, as listed by the source, form in doubt): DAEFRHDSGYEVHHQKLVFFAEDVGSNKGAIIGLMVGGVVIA

[20] = molecular target: Aβ1-42 peptide, low molecular weight (LMW) monomer preparation (human); assay: ELISA on coated fraction, Ab 0.5 µg/ml
Aβ1-42 peptide, low molecular weight (LMW) monomer preparation (human), sequence (peptide, as listed by the source, form in doubt): as above

[21] = molecular target: Aβ1-42 peptide, monomer-enriched preparation; assay: ELISA mean of 3, Ab 1:128 of 0.5 µg/ml
[22] = molecular target: Aβ1-42 peptide, oligomer-enriched preparation; assay: ELISA mean of 3, Ab 1:128 of 0.5 µg/ml
[23] = molecular target: Aβ1-42 peptide, high molecular weight (HMW) proto-fibrillar (PF) oligomer enriched preparation (human); assay: ELISA on coated fraction, Ab 0.25 µg/ml
[24] = molecular target: Aβ1-42 peptide, low molecular weight (LMW) monomer preparation (human); assay: ELISA on coated fraction, Ab 0.25 µg/ml
[25] = molecular target: Aβ1-42 peptide, high molecular weight (HMW) proto-fibrillar (PF) oligomer enriched preparation (human); assay: ELISA on coated fraction, Ab 0.125 µg/ml
[26] = molecular target: Aβ1-42 peptide, low molecular weight (LMW) monomer preparation (human); assay: ELISA on coated fraction, Ab 0.125 µg/ml
[27] = molecular target: Aβ1-42 peptide, high molecular weight (HMW) proto-fibrillar (PF) oligomer enriched preparation (human); assay: ELISA on coated fraction, Ab 0.0078 µg/ml
[28] = molecular target: Aβ1-42 peptide, low molecular weight (LMW) monomer preparation (human); assay: ELISA on coated fraction, Ab 0.0078 µg/ml
[29] = molecular target: Aβ1-42 peptide, high molecular weight (HMW) proto-fibrillar (PF) oligomer enriched preparation (human); assay: ELISA on coated fraction, Ab 0.0156 µg/ml
[30] = molecular target: Aβ1-42 peptide, low molecular weight (LMW) monomer preparation (human); assay: ELISA on coated fraction, Ab 0.0156 µg/ml
[31] = molecular target: Aβ1-42 peptide, high molecular weight (HMW) proto-fibrillar (PF) oligomer enriched preparation (human); assay: ELISA on coated fraction, Ab 0.0313 µg/ml
[32] = molecular target: Aβ1-42 peptide, low molecular weight (LMW) monomer preparation (human); assay: ELISA on coated fraction, Ab 0.0313 µg/ml
[33] = molecular target: Aβ1-42 peptide, high molecular weight (HMW) proto-fibrillar (PF) oligomer enriched preparation (human); assay: ELISA on coated fraction, Ab 0.0625 µg/ml
[34] = molecular target: Aβ1-42 peptide, low molecular weight (LMW) monomer preparation (human); assay: ELISA on coated fraction, Ab 0.0625 µg/ml
[35] = molecular target: Aβ1-42 peptide, high molecular weight (HMW) proto-fibrillar (PF) oligomer enriched preparation (human); assay: ELISA, Ab 1 µg/ml; proto-fibrils against LMW monomers (given without sign)
[36] = molecular target: Aβ1-42 peptide, high molecular weight (HMW) proto-fibrillar (PF) oligomer enriched preparation (human); assay: ELISA, Ab 0.5 µg/ml; proto-fibrils against LMW monomers (given without sign)
[37] = molecular target: Aβ1-42 peptide, high molecular weight (HMW) proto-fibrillar (PF) oligomer enriched preparation (human); assay: ELISA, Ab 0.25 µg/ml; proto-fibrils against LMW monomers (given without sign)
[38] = molecular target: Aβ1-42 peptide, high molecular weight (HMW) proto-fibrillar (PF) oligomer enriched preparation (human); assay: ELISA, Ab 0.125 µg/ml; proto-fibrils against LMW monomers (given without sign)
[39] = molecular target: Aβ1-42 peptide, high molecular weight (HMW) proto-fibrillar (PF) oligomer enriched preparation (human); assay: ELISA, Ab 0.0078 µg/ml; proto-fibrils against LMW monomers (given without sign)
[40] = molecular target: Aβ1-42 peptide, high molecular weight (HMW) proto-fibrillar (PF) oligomer enriched preparation (human); assay: ELISA, Ab 0.0156 µg/ml; proto-fibrils against LMW monomers (given without sign)
[41] = molecular target: Aβ1-42 peptide, high molecular weight (HMW) proto-fibrillar (PF) oligomer enriched preparation (human); assay: ELISA, Ab 0.0313 µg/ml; proto-fibrils against LMW monomers (given without sign)
[42] = molecular target: Aβ1-42 peptide, high molecular weight (HMW) proto-fibrillar (PF) oligomer enriched preparation (human); assay: ELISA, Ab 0.0625 µg/ml; proto-fibrils against LMW monomers (given without sign)

Aβ1-42 peptide, oligomer-enriched preparation, sequence (peptide, as listed by the source, form in doubt): as above
Aβ1-42 peptide, monomer-enriched preparation, sequence (peptide, as listed by the source, form in doubt): as above

O.D. [1]: 0.62 O.D.
O.D. [2]: 0.75 O.D.
O.D. [3]: 0.61 O.D.
O.D. [4]: 0.86 O.D.
O.D. [5]: 0.66 O.D.
O.D. (mean) [6]: 3.83 O.D.
O.D. (mean) [7]: 3.64 O.D.
O.D. (mean) [8]: 3.59 O.D.
O.D. (mean) [9]: 3.59 O.D.
O.D. (mean) [10]: 3.27 O.D.
O.D. (mean) [11]: 3.37 O.D.
O.D. (mean) [12]: 2.98 O.D.
O.D. (mean) [13]: 1.98 O.D.
O.D. (mean) [14]: 1.92 O.D.
O.D. (mean) [15]: 1.36 O.D.
O.D. (mean) [16]: 1.32 O.D.
O.D. (mean) [17]: 0.94 O.D.
O.D. (mean) [18]: 0.92 O.D.
O.D. [19]: 2 O.D.
O.D. [20]: 2.13 O.D.
O.D. (mean) [21]: 0.75 O.D.
O.D. (mean) [22]: 0.63 O.D.
O.D. [23]: 1.44 O.D.
O.D. [24]: 1.56 O.D.
O.D. [25]: 0.863 O.D.
O.D. [26]: 0.999 O.D.
O.D. [27]: 0.116 O.D.
O.D. [28]: 0.133 O.D.
O.D. [29]: 0.201 O.D.
O.D. [30]: 0.207 O.D.
O.D. [31]: 0.286 O.D.
O.D. [32]: 0.329 O.D.
O.D. [33]: 0.544 O.D.
O.D. [34]: 0.574 O.D.
O.D. difference [35]: 0.13 O.D.
O.D. difference [36]: 0.13 O.D.
O.D. difference [37]: 0.12 O.D.
O.D. difference [38]: 0.14 O.D.
O.D. difference [39]: 0.02 O.D.
O.D. difference [40]: 0.01 O.D.
O.D. difference [41]: 0.04 O.D.
O.D. difference [42]: 0.03 O.D.
Substance: 6E10 control antibody
